Results reported in the supplement of paper PMC9112550, “Optimization of the antimicrobial peptide Bac7 by deep mutational scanning” (BMC Biology, 2022).

The sequences below were run on Escherichia coli TOP10 (assay: shrunken log2 fold change of peptide-encoding DNA abundance (4.5 h post-induction vs induction); higher = less antimicrobial activity (less host growth inhibition)). Details: time post-induction: 4.5 h; library: site-saturation at positions 5, 18, 19, 20.
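Further: peptides expressed intracellularly from a pBAD plasmid library in pooled LB shake-flask culture, induced with 0.3% L-arabinose, DNA abundance read by NGS, three biological replicates, DESeq2 with apeglm shrinkage.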

| Sequence | shrunken log2 fold change |
| --- | --- |
| RRIRNRPPRLPRPRPRPKQCPRP | -0.293 |
| RRIRFRPPRLPRPRPRPTWFPRP | 0.0971 |
| RRIRVRPPRLPRPRPRPMESPRP | 0.156 |
| RRIRNRPPRLPRPRPRPPDQPRP | 0.184 |
| RRIRKRPPRLPRPRPRPKALPRP | 1.8 |
| RRIRVRPPRLPRPRPRPIASPRP | 0.171 |
| RRIRNRPPRLPRPRPRPKSSPRP | -0.0182 |
| RRIRQRPPRLPRPRPRPELQPRP | -0.0257 |
| RRIRVRPPRLPRPRPRPEIVPRP | -0.0567 |
| RRIRLRPPRLPRPRPRPDGWPRP | 0.257 |
| RRIRIRPPRLPRPRPRPHIDPRP | -0.0031 |
| RRIRWRPPRLPRPRPRPAQTPRP | 0.476 |
| RRIRGRPPRLPRPRPRPDASPRP | 1.34 |
| RRIRMRPPRLPRPRPRPGNWPRP | 0.561 |
| RRIRWRPPRLPRPRPRPMHDPRP | 0.229 |
| RRIRLRPPRLPRPRPRPSMCPRP | -0.196 |
| RRIRGRPPRLPRPRPRPCGAPRP | 1.16 |
| RRIRRRPPRLPRPRPRPHGAPRP | 0.284 |
| RRIRKRPPRLPRPRPRPKDAPRP | -0.0585 |
| RRIRDRPPRLPRPRPRPYCPPRP | -1.1 |
| RRIRWRPPRLPRPRPRPDVLPRP | -0.0113 |
| RRIRWRPPRLPRPRPRPQHVPRP | -0.274 |
| RRIRERPPRLPRPRPRPDATPRP | 0.645 |
| RRIRKRPPRLPRPRPRPRQWPRP | 0.263 |
| RRIRIRPPRLPRPRPRPGECPRP | -0.143 |

| Sequence | shrunken log2 fold change |
| --- | --- |
| RRIRKRPPRLPRPRPRPWITPRP | -0.105 |
| RRIRKRPPRLPRPRPRPRNMPRP | -0.162 |
| RRIRYRPPRLPRPRPRPHQTPRP | 0.0583 |
| RRIRDRPPRLPRPRPRPCYSPRP | -0.0729 |
| RRIRVRPPRLPRPRPRPWHAPRP | -0.109 |
| RRIRHRPPRLPRPRPRPILNPRP | -0.186 |
| RRIRRRPPRLPRPRPRPPEWPRP | 0.539 |
| RRIRLRPPRLPRPRPRPEWPPRP | 0.549 |
| RRIRKRPPRLPRPRPRPGVVPRP | 0.755 |
| RRIRSRPPRLPRPRPRPALFPRP | 0.069 |
| RRIRIRPPRLPRPRPRPKRYPRP | -0.118 |
| RRIRFRPPRLPRPRPRPCNSPRP | -0.0848 |
| RRIRDRPPRLPRPRPRPDIYPRP | 0.0286 |
| RRIRRRPPRLPRPRPRPLTHPRP | 0.275 |
| RRIRERPPRLPRPRPRPMQTPRP | 0.0432 |
| RRIRYRPPRLPRPRPRPFYQPRP | -0.224 |
| RRIRQRPPRLPRPRPRPNSHPRP | -0.191 |
| RRIRYRPPRLPRPRPRPTHKPRP | -0.329 |
| RRIRNRPPRLPRPRPRPLLFPRP | -0.188 |
| RRIRGRPPRLPRPRPRPFTPPRP | 0.0836 |
| RRIRGRPPRLPRPRPRPADMPRP | 0.373 |
| RRIRIRPPRLPRPRPRPTEIPRP | -0.305 |
| RRIRPRPPRLPRPRPRPDRYPRP | -0.0207 |
| RRIRLRPPRLPRPRPRPYGCPRP | -0.318 |
| RRIRFRPPRLPRPRPRPWFIPRP | -0.175 |

| Sequence | shrunken log2 fold change |
| --- | --- |
| RRIRNRPPRLPRPRPRPMFTPRP | -0.211 |
| RRIRIRPPRLPRPRPRPPDIPRP | -0.198 |
| RRIRWRPPRLPRPRPRPTFRPRP | -0.0799 |
| RRIRIRPPRLPRPRPRPKHLPRP | -0.137 |
| RRIRTRPPRLPRPRPRPIFAPRP | 0.408 |
| RRIRFRPPRLPRPRPRPIVAPRP | -0.112 |
| RRIRDRPPRLPRPRPRPSYKPRP | -0.208 |
| RRIRDRPPRLPRPRPRPVHTPRP | -0.00587 |
| RRIRKRPPRLPRPRPRPKIIPRP | -0.135 |
| RRIRVRPPRLPRPRPRPPGHPRP | 0.246 |
| RRIRDRPPRLPRPRPRPFDMPRP | 0.0213 |
| RRIRGRPPRLPRPRPRPGVEPRP | 1.46 |
| RRIRQRPPRLPRPRPRPEIFPRP | 0.127 |
| RRIRTRPPRLPRPRPRPNRIPRP | -0.294 |
| RRIRGRPPRLPRPRPRPFLQPRP | 0.231 |
| RRIRQRPPRLPRPRPRPDHNPRP | -0.328 |
| RRIRRRPPRLPRPRPRPTCWPRP | 0.225 |
| RRIRNRPPRLPRPRPRPRSSPRP | -0.145 |
| RRIRVRPPRLPRPRPRPKKIPRP | 0.0852 |
| RRIRTRPPRLPRPRPRPGPTPRP | 0.455 |
| RRIRHRPPRLPRPRPRPVQEPRP | -0.0785 |
| RRIRDRPPRLPRPRPRPDCPPRP | -0.0117 |
| RRIRCRPPRLPRPRPRPPWTPRP | 0.224 |
| RRIRHRPPRLPRPRPRPETAPRP | 0.346 |
| RRIRSRPPRLPRPRPRPSCQPRP | -0.175 |

| Sequence | shrunken log2 fold change |
| --- | --- |
| RRIRDRPPRLPRPRPRPPYDPRP | -0.00841 |
| RRIRIRPPRLPRPRPRPCKQPRP | -0.0506 |
| RRIRARPPRLPRPRPRPKVQPRP | 0.0571 |
| RRIRSRPPRLPRPRPRPSKDPRP | -0.61 |
| RRIRARPPRLPRPRPRPNAQPRP | 0.158 |
| RRIRWRPPRLPRPRPRPQPWPRP | 0.363 |
| RRIRMRPPRLPRPRPRPRDFPRP | 0.83 |
| RRIRYRPPRLPRPRPRPSMHPRP | -0.601 |
| RRIRERPPRLPRPRPRPECYPRP | -0.143 |
| RRIRARPPRLPRPRPRPIRIPRP | 0.0541 |
| RRIRSRPPRLPRPRPRPTAWPRP | 0.47 |
| RRIRLRPPRLPRPRPRPCELPRP | -0.358 |
| RRIRERPPRLPRPRPRPNPFPRP | 0.0226 |
| RRIRWRPPRLPRPRPRPVGIPRP | -0.198 |
| RRIRQRPPRLPRPRPRPQHCPRP | -0.076 |
| RRIRPRPPRLPRPRPRPQTNPRP | -0.0828 |
| RRIRSRPPRLPRPRPRPCRDPRP | -0.0619 |
| RRIRYRPPRLPRPRPRPTWEPRP | -0.0387 |
| RRIRGRPPRLPRPRPRPLHSPRP | 0.529 |
| RRIRERPPRLPRPRPRPSIDPRP | -0.0545 |
| RRIRGRPPRLPRPRPRPQEIPRP | 0.427 |
| RRIRVRPPRLPRPRPRPSCMPRP | -0.136 |
| RRIRGRPPRLPRPRPRPYSVPRP | 0.0284 |
| RRIRRRPPRLPRPRPRPMELPRP | 0.212 |
| RRIRHRPPRLPRPRPRPISPPRP | -0.256 |

| Sequence | shrunken log2 fold change |
| --- | --- |
| RRIRRRPPRLPRPRPRPHSAPRP | 0.0905 |
| RRIRQRPPRLPRPRPRPNGKPRP | -0.362 |
| RRIRKRPPRLPRPRPRPPYRPRP | -0.17 |
| RRIRFRPPRLPRPRPRPFQRPRP | 0.0192 |
| RRIRHRPPRLPRPRPRPCKGPRP | -0.0269 |
| RRIRNRPPRLPRPRPRPGCRPRP | 0.123 |
| RRIRSRPPRLPRPRPRPKCHPRP | -0.31 |
| RRIRFRPPRLPRPRPRPYVIPRP | -0.303 |
| RRIRWRPPRLPRPRPRPCPLPRP | -0.247 |
| RRIRTRPPRLPRPRPRPPGHPRP | 0.245 |
| RRIRTRPPRLPRPRPRPCYQPRP | -0.335 |
| RRIRPRPPRLPRPRPRPDAYPRP | -0.334 |
| RRIRRRPPRLPRPRPRPTFSPRP | 0.185 |
| RRIRTRPPRLPRPRPRPYSGPRP | -0.00196 |
| RRIRSRPPRLPRPRPRPKSIPRP | -0.228 |
| RRIRFRPPRLPRPRPRPETEPRP | -0.0257 |
| RRIRARPPRLPRPRPRPTEQPRP | 0.184 |
| RRIRWRPPRLPRPRPRPDHNPRP | -0.302 |
| RRIRRRPPRLPRPRPRPYHLPRP | -0.307 |
| RRIRRRPPRLPRPRPRPSGPPRP | -0.0409 |
| RRIRYRPPRLPRPRPRPWLPPRP | 0.1 |
| RRIRMRPPRLPRPRPRPTEKPRP | 1.36 |
| RRIRLRPPRLPRPRPRPLTQPRP | 0.343 |
| RRIRERPPRLPRPRPRPKFSPRP | -0.0396 |
| RRIRVRPPRLPRPRPRPQNRPRP | 0.112 |

| Sequence | shrunken log2 fold change |
| --- | --- |
| RRIRQRPPRLPRPRPRPMSDPRP | -0.0194 |
| RRIRMRPPRLPRPRPRPPEWPRP | 0.5 |
| RRIRYRPPRLPRPRPRPSSWPRP | -0.284 |
| RRIRQRPPRLPRPRPRPDETPRP | -0.00179 |
| RRIRERPPRLPRPRPRPYDPPRP | -0.0709 |
| RRIRPRPPRLPRPRPRPAMSPRP | 0.128 |
| RRIRARPPRLPRPRPRPTAAPRP | 1.05 |
| RRIRMRPPRLPRPRPRPRMHPRP | 0.118 |
| RRIRKRPPRLPRPRPRPGLNPRP | 0.0896 |
| RRIRCRPPRLPRPRPRPACHPRP | -0.315 |
| RRIRHRPPRLPRPRPRPPGDPRP | 0.477 |
| RRIRLRPPRLPRPRPRPFFFPRP | 0.343 |
| RRIRFRPPRLPRPRPRPDCSPRP | 0.0229 |
| RRIRNRPPRLPRPRPRPFCEPRP | -0.28 |
| RRIRPRPPRLPRPRPRPFYWPRP | -0.107 |
| RRIRCRPPRLPRPRPRPWFQPRP | -0.2 |
| RRIRHRPPRLPRPRPRPHEPPRP | -0.0274 |
| RRIRARPPRLPRPRPRPKAWPRP | 0.146 |
| RRIRPRPPRLPRPRPRPTQFPRP | 0.274 |
| RRIRSRPPRLPRPRPRPCSVPRP | 0.044 |
| RRIRNRPPRLPRPRPRPAHVPRP | -0.0508 |
| RRIRARPPRLPRPRPRPHTYPRP | -0.126 |
| RRIRARPPRLPRPRPRPAVMPRP | 0.399 |
| RRIRRRPPRLPRPRPRPDANPRP | 0.555 |
| RRIRIRPPRLPRPRPRPHMHPRP | -1.05 |
